# Data published in patent US20040101905A1, “Product” (priority 2000, published 2004).
# Assays:
# FcγRI receptor = target: T1, FcγRI receptor (Homo sapiens, UniProt P12314); assay: Affinity selection of phage displayed peptides on IFN-γ stimulated U937 cells (FcγRI binding)
# T1 construct: To increase FcγRI expression the U937-cells were treated with 100 U/ml IFN-γ for 40 hours; endogenous in cells; host or cells: U937 cells stimulated with IFN-γ
# Description: (§1) Affinity selection: For affinity selection, […] stimulated U937cells were washed in 20 ml pan-wash buffer (PBS pH7.4, 1% BSA, 1 mMCaCl2, 10 mMMgCl2) and then resuspended in 1 ml pan-wash buffer. Portions (1×10^10 E. coli K91K transducing units (TU)) of each library were added to the cells. Cells and phages were incubated with agitation for 1.5 hours at 4° C. Unbound phages were removed by washing the cells 6 times with 2 ml pan-wash buffer. Bound phages were eluted in 200 μl 0.1M HCl-glycine pH 2.2 for 10 minutes on ice. The eluates were neutralised with 17 μl 1.5M Tris pH 8.8. Phages were amplified (essentially as described in Smith and Scott Methods Enzymol. 1993;217:228-57). A second round of affinity selection was performed using an input of 10^9 phages.
# Peptide sequences of affinity selected phage clones: PCR products covering the peptide coding insert were created using the primers fUSE5 for (5′ […] 3′) and fUSE5 (5′[…] 3′). The PCR products were sequenced (GATC/GmBh Germany) using the primer (5′[…] 3′) and the results shown in Table 1.
# [1] = target: T2, SC (secretory component, extracellular portion of the poly Ig receptor) (Homo sapiens, UniProt P01833); assay: ELISA of phage binding to immobilised SC; conditions: for SC binding of single phage clones (ELISA): immobilised colostrum SC
# T2 construct: “secretory component”—the extracellular portion of the poly Ig receptor; from tissue; host or cells: human colostrum
# T2 sequence (P01833 19-603 limits assumed): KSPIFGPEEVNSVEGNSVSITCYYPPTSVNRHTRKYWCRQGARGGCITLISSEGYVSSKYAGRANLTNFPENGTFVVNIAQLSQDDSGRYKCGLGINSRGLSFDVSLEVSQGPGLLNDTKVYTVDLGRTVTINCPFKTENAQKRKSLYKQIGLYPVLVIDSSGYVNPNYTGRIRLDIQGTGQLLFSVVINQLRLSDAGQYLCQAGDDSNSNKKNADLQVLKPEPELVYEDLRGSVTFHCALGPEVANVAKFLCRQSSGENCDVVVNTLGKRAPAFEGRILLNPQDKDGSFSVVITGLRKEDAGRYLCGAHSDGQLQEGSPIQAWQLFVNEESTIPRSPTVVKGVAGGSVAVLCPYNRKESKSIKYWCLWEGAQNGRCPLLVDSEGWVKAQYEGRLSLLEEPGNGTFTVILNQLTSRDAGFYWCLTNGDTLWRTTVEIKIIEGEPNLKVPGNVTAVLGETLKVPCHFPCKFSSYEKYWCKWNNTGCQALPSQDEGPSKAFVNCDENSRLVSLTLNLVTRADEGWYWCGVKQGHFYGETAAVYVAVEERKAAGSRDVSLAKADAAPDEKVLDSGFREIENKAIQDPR
# Description: Affinity selection: Free SC purified from human colostrum by Jackaline-Sepharose column (Pharmacia Biotech, Uppsala, Sweden) (Brandtzaeg P. Scand. J. Immunol. 1974, 3:579-88) was used. SC was immobilised in Nunc MaxiSorp (Costar) tubes at approximately 30 μg/ml in a volume of 500 μl in each tube at 4° C. ON. The tubes were blocked with 1% BSA or 1% milk powder in PBS for 1 h at RT. Approximately 10^10 TU from each library were pre incubated with PBS and 1% BSA or 1% milk powder (1:1) for 1 h at 4° C. before they were added to the tubes and incubated at RT for 1.5 h. The tubes were washed 6 times with PBS/0.05% Tween 20. Bound phage were eluted by incubation with 500 μl 0.1M HCl-glycine pH 2.2 for 10 min and neutralised with 75 μl 0.1M Tris pH 9.1. Phage were amplified essentially as described by Smith and Scott (Methods Enzymol., 1993, 217:228-257) and two additional rounds of affinity selection were performed.
# ELISA assay. The purified colostrum SC was coated at 30 μg/ml in Nunc MaxiSorb wells in PBS at 4° C. ON. The wells were blocked with 200 μl PBS with 1% BSA or 1% milk powder for 1 h at RT. Phage supernatants from amplified eluates or single colonies were diluted 1:1 in blocking buffer, added to the wells and allowed to react with immobilsed SC for 1.5 h at RT. The wells were washed 6 times with PBS/0.05% Tween and bound phage were detected by adding a horse radish peroxidase (HRP)/Anti-M13 IgG conjugate (Pharmacia) 1:4000 in PBS with 1% BSA or 1% milk powder. After incubation for 1 h at RT, washing with PBS/[…] and addition of ABTS substrate solution (ABTS tablets from Boehringer Mannheim in citrate buffer, pH 4.0) the ABTS-HRP reactions were read in a microtiter plate reader set at […] (Dynatech MR 700).
# SC = target: T3, SC (Homo sapiens, UniProt P01833); assay: Inhibition assay of SC binding phages; conditions: phages CWTSGARWRLC and CVVWMGFQQVC pre incubated with competitor
# T3 construct: “secretory component”—the extracellular portion of the poly Ig receptor; from tissue; host or cells: human colostrum
# T3 sequence (P01833 19-603 limits assumed): as above
# Description: Inhibition assay of SC binding phages: Nunc MaxiSorb 96 wells plates were coated with 30 μg/ml of purified colostrum SC at 4° C. ON. The plates were blocked in 1% milk powder for 1 h at RT before adding phage. Phage were pre incubated with […] polymeric IgA (pIgA), pIgM or Streptococcus pneumoniae secretory IgA binding protein (SpsA) in PBS/1% milk powder. SpsA is an streptococcal produced SC binding protein (Hammerschmidt et al. Mol Microbiol 1997 sep 25 (6): 1113-24). After incubation for 1.5 h at RT the plates were washed 6 times before HRP/Anti-M13 conjugate (Pharmacia) 1:4000 in PBS with 1% milk powder was added. 6 times of washing with PBS/0.05% Tween were followed by the ABTS substrate solution. The ABTS-HRP reaction was read in a microtiter plate reader set at 405 nm. All samples were run in duplicates.
# [2] = test system: IFN-γ stimulated U937 cells; assay: Phage binding to IFN-γ stimulated U937 cells; format: cell-based, human; conditions: for % output / Output (number of bound phages): U937-INF-γ, input 5 × 10^7 TU; for Output (number of bound phages): 3×10^6 cells, acid eluate
# Description: (§2) Cells: U937 cells (ATCC CRL-1593) and K562 cells (ATCC CCL-243) were maintained in RPMI 1640 medium (Gibco laboratories) supplemented with 10% heat-inactivated FCS (Biological Industries, Beth Haemark), 2 mM L-glutamine, 100 U/ml penicillin (Gibco). Cells-were incubated at 5% CO2 and 37° C. at density ranging from 10^5 to 10^6 cells/ml.
# To increase FcγRI expression the U937-cells were treated with 100 U/ml IFN-γ for 40 hours.
# as §1
# (§3) Cell binding of individual phages: Phage expressing the peptide CLRSGLGC were analysed for binding unstimulated U937 cells, IFN-γ stimulated U937 cells, as well as K562 cells. Both U937 and […]. Whereas INF-γ stimulated U937 cells express an increased number of FcγRI, K562-cells preferentially express FcγRII. 5×10^7 TU of individual phage clones were added to 3×10^6 cells in pan-wash buffer, incubated and eluted as described above.
# unstimulated U937 cells = assay: Phage binding to unstimulated U937 cells; format: cell-based, human; conditions: input 5 × 10^7 TU; for Output (number of bound phages): 3×10^6 cells
# Description: as §2, §1, §3
# K562 cells = assay: Phage binding to K562 cells; format: cell-based, human; conditions: input 5 × 10^7 TU; for Output (number of bound phages): 3×10^6 cells
# Description: as §2, §1, §3
# [3] = Phage binding to control wells (protein A with lysate from untransfected NSO cells; protein A blocked with BSA)
# Description: (§4) Protein A was immobilised in wells at 10 μg/ml in a volume of 200 μl at 4° C. overnight (ON). The wells were blocked with 1% BSA in PBS for 1 h at room temperature (RT). Lysate from FcFcR-transfected and untransfected cells were added to the wells and incubated at RT for 2 h. The wells were washed and new lysate was added zero, one or two times following 2 h incubation at RT. The wells were washed 7 times with PBS/0.5% Tween 20. 200 μl biotinylated human IgG3 in PBS (1 μg/ml) was added to the wells. The wells were washed as above and binding of biotinylated IgG3 was detected with streptavidin and […] (FIG. 2).
# (§5) Wells were coated as described above with lysate from FcFcR transfected NSO cells added three times. Phages displaying the peptide CLRSGLGC were added to the wells and incubated at RT for 1.5 h. The wells were washed 8 times with PBS/0.5% Tween 20. Bound phages were eluted by incubation with 200 μl 0.1M HCl-glycine pH 2.2 for 10 min. and neutralised with 17 μl 0.1M Tris pH 8.8. The number of bound phages were determined as E. coli K91K TU's (Table 4).
# [4] = target: T4, FcFcR (recombinant dimeric soluble human FcγRI) (Homo sapiens, UniProt P12314); assay: Binding of phage displayed peptides to recombinant dimeric FcγRI (FcFcR) immobilised via protein A
# T4 construct: the extracelluar part of the human FcγRI genetically fused to human IgG4; made in house; host or cells: mouse myeloma cell line NSO (lysate of transfected cells, not purified)
# T4 sequence (P12314 16-292 limits assumed): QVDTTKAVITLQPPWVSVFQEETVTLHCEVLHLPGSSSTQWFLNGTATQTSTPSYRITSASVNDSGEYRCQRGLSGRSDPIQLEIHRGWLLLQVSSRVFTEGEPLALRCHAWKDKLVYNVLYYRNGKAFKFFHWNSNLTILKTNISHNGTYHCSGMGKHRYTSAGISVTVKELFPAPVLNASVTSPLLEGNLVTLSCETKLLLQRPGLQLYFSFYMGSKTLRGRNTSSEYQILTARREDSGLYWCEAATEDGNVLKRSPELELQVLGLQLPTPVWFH
# Description: as §4, §5
# T1 sequence (P12314 16-374): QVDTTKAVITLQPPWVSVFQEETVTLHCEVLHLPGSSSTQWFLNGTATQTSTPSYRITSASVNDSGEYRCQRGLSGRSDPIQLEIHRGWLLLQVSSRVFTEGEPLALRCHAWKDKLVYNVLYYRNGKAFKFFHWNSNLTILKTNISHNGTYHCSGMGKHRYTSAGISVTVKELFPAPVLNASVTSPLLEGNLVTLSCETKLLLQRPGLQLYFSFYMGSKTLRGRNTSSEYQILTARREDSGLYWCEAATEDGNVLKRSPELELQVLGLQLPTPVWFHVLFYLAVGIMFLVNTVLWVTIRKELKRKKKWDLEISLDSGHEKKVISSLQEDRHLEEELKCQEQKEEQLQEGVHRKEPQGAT
substance,measurement,setting,value
CLRSGAGC,binding to the FcγRI receptor,FcγRI receptor,shown to bind the FcγRI receptor
CLYGDELC,binding to the FcγRI receptor,FcγRI receptor,shown to bind the FcγRI receptor
CSAGRACCRYC,binding to the FcγRI receptor,FcγRI receptor,shown to bind the FcγRI receptor
CWTSGARWRLC,binding to the poly Ig receptor,[1],shown to bind the poly Ig receptor
same,SC binding of single phage clones (ELISA),[1],SC binding
CLRSGRGC,binding to the FcγRI receptor,FcγRI receptor,shown to bind the FcγRI receptor
CVVWMGFQQVC,binding to the poly Ig receptor,[1],shown to bind the poly Ig receptor
same,SC binding of single phage clones (ELISA),[1],SC binding
CLRSGLHC,binding to the FcγRI receptor,FcγRI receptor,shown to bind the FcγRI receptor
SpsA,blocking of phage binding to SC,SC,blocked phage from binding to the receptor for both peptides
CSWIPGVGLVC,binding to the FcγRI receptor,FcγRI receptor,shown to bind the FcγRI receptor
"CGPGGTVGYTC [CONTROL, control phage displaying an irrelevant insert (…), reference compound]",% output,[2],<0.0004%
same,Output (number of bound phages),[2],<2 × 10^2 TU
same,% output,unstimulated U937 cells,<0.0004%
same,Output (number of bound phages),unstimulated U937 cells,<2 × 10^2 TU
same,% output,K562 cells,<0.0004%
same,Output (number of bound phages),K562 cells,<2 × 10^2 TU
CLRSGSGC,binding to the FcγRI receptor,FcγRI receptor,shown to bind the FcγRI receptor
CLRSGANC,binding to the FcγRI receptor,FcγRI receptor,shown to bind the FcγRI receptor
CRRATAGCAGC,binding to the FcγRI receptor,FcγRI receptor,shown to bind the FcγRI receptor
CQDPICFCGADGACYCTSRNC,binding to the poly Ig receptor,[1],shown to bind the poly Ig receptor
same,SC binding of single phage clones (ELISA),[1],positive
CFPVGRATC,binding to the FcγRI receptor,FcγRI receptor,shown to bind the FcγRI receptor
CRSMVMLRVRC,binding to the FcγRI receptor,FcγRI receptor,shown to bind the FcγRI receptor
CAWHYRFCGAAHSADGACREVFLVC,binding to the poly Ig receptor,[1],shown to bind the poly Ig receptor
same,SC binding of single phage clones (ELISA),[1],positive
CRRSGQGC,binding to the FcγRI receptor,FcγRI receptor,shown to bind the FcγRI receptor
CLRSGRAC,binding to the FcγRI receptor,FcγRI receptor,shown to bind the FcγRI receptor
CGRVNTWLPQC,binding to the FcγRI receptor,FcγRI receptor,shown to bind the FcγRI receptor
CLRSGLGC,times more phages eluted compared to the irrelevant control phage,[2]; IFN-γ stimulated U937 cells,More than 500 times
same,% output,[2],0.2%
same,Output (number of bound phages),[2],1 × 10^5 TU
same,binding to IFN-γ stimulated U937 cells compared to unstimulated U937 cells and K562 cells,[2]; same number of cells,bound significantly better to IFN-γ stimulated U937 cells
same,% output,unstimulated U937 cells,0.028%
same,Output (number of bound phages),unstimulated U937 cells,1.4 × 10^4 TU
same,binding to the FcγRI receptor,FcγRI receptor,shown to bind the FcγRI receptor
same,% output,[3],0.05%
same,Output (number of bound phages),[3]; input 2.5 × 10^8,1.2 × 10^5 TU
same,% output,K562 cells,0.02%
same,Output (number of bound phages),K562 cells,1.4 × 10^4 TU
same,binding to wells with immobilised FcFcR compared to wells with no FcR activity,[4],significant better binding
same,% output,[4]; lysate from FcFcR transfected cells,0.3%
same,Output (number of bound phages),"[4]; lysate from FcFcR transfected cells, input 2.5 × 10^8",6.8 × 10^5 TU
